Experimental findings from paper PMC2816702 (PLoS ONE, 2010) are described below.

Several values for one entry are separate records, joined by “and”; a condition that tells them apart may be missing. Identical values can stand only once.

Series [1] has as its target Recombinant birch pollen profilin Bet v 2 (birch). As to the kind of experiment: native MS; ESI FT-ICR, direct infusion, 10 mM ammonium acetate pH 6.9, allergen (monomer) concentration 40 µM.
Series [2] deals with Recombinant major apple allergen Mal d 1 (apple) (UniProt P43211). As to the kind of experiment: native MS; ESI FT-ICR, direct infusion, 10 mM ammonium acetate pH 6.9, allergen (monomer) concentration 9 µM.
For series [3], the target named is Recombinant major celery allergen Api g 1 (celery). The series is described as follows: native MS; ESI FT-ICR, direct infusion, 10 mM ammonium acetate pH 6.9, allergen (monomer) concentration 10 µM.
The target in series [4] is T1, Recombinant birch pollen allergen Bet v 1a (birch), P15494.
T1 chain: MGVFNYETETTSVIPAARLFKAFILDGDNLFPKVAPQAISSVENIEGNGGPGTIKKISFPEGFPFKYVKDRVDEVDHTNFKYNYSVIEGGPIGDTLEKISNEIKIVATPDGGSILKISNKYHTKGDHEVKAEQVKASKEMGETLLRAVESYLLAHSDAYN
As to the kind of experiment: native MS; ESI FT-ICR, direct infusion, 10 mM ammonium acetate pH 6.9, allergen (monomer) concentration 40 µM. To be noted: remark: other sources report otherwise.

Series [5] deals with the molecule itself. As to the kind of experiment: native MS; ESI FT-ICR, direct infusion, 10 mM ammonium acetate pH 6.9, allergen (monomer) concentration 8 µM.
Series [6] deals with the molecule itself. As to the kind of experiment: native MS; ESI FT-ICR, direct infusion, 10 mM ammonium acetate pH 6.9, allergen (monomer) concentration 10 µM.
Series [7] concerns the molecule itself. The series is described as follows: native MS.

What is called stoichiometry N is the number of molecules, sites or subunits per partner or assembly. Turning to “Recombinant birch pollen profilin Bet v 2 (natural protein)”, in series [1], the stoichiometry N is 2 and 3 and 4.

As for “Recombinant major apple allergen Mal d 1 (from UniProt P43211 1-159) (natural protein)”, in series [2], the stoichiometry N was found to be 2. Take “Recombinant major celery allergen Api g 1 (natural protein)”: the stoichiometry N in series [3] was found to be 2.

B1: Recombinant birch pollen allergen Bet v 1a, P15494 1-160 (natural protein)
chain: MGVFNYETETTSVIPAARLFKAFILDGDNLFPKVAPQAISSVENIEGNGGPGTIKKISFPEGFPFKYVKDRVDEVDHTNFKYNYSVIEGGPIGDTLEKISNEIKIVATPDGGSILKISNKYHTKGDHEVKAEQVKASKEMGETLLRAVESYLLAHSDAYN
As for B1, in series [4], the stoichiometry N turned out to be 2.

B2: Recombinant Alternaria alternata allergen Alt a 1 (natural protein)
chain: APLESRQDTASCPVTTEGDYVWKISEFYGRKPEGTYYNSLGFNIKATNGGTLDFTCSAQADKLEDHKWYSCGENSFMDFSFDSDRSGLLLKQKVSDDITYVATATLPNYCRAGGNGPKDFVCQGVADAYITLVTLPKSS
notes: source: bought: Biomay AG (recombinant)
Regarding B2, in series [5], the “stoichiometry N” value was 2.

B3: Recombinant timothy pollen allergen Phl p 6 (natural protein, UniProt P43215 23-132, looked up)
chain: GKATTEEQKLIEDVNASFRAAMATTANVPPADKYKTFEAAFTVSSKRNLADAVSKAPQLVPKLDEVYNAAYNAADHAAPEDKYEAFVLHFSEALRIIAGTPEVHAVKPGA
notes: as for B2
As to B3, the “stoichiometry N” value in series [6] was 2 and 3.

B4: Bos d 5 variant A (in native Bos d 5) (natural protein)
chain: LIVTQTMKGLDIQKVAGTWYSLAMAASDISLLDAQSAPLRVYVEELKPTPEGDLEILLQKWENDECAQKKIIAEKTKIPAVFKIDALNENKVLVLDTDYKKYLLFCMENSAEPEQSLVCQCLVRTPEVDDEALEKFDKALKALPMHIRLSFNPTQLEEQCHI
For the molecule B4, the “abundance ratio among the dimeric species” value in series [7] is 18%.

B5: Recombinant rubber tree allergen Hev b 8 (natural protein)
chain: SWQTYVDDHLMCDIDGHRLTAAAIIGHDGSVWAQSSSFPQFKSDEVAAVMKDFDEPGSLAPTGLHLGGTKYMVIQGEPGAVIRGKKGSGGITVKKTGQALIIGIYDEPLTPGQCNMIVERLGDYLLDQGL
Turning to B5, in series [6], the “stoichiometry N” value was 2.
